Test results published in US20260176319A1 (KALLYOPE, published 2026).
Starred links: 1 amine or outer side, 2 acyl side, 3 side chain; linkers in the order of their positions; H or OH if unused. Non-standard residues stand in square brackets, D forms with d. Groups on a side chain read outwards from the residue. *: point of attachment. Trp(7-F) = N[C@@H](Cc1c[nH]c2c(F)cccc12)C(=O)O; Trp(7-Me) = Cc1cccc2c(C[C@H](N)C(=O)O)c[nH]c12; d(γGlu) = O=C(O)[C@@H](CCC(=O)[*:2])N[*:1]; C18 diacid = O=C(O)CCCCCCCCCCCCCCCCC(=O)*; Palmitoyl = CCCCCCCCCCCCCCCC(=O)*; 2Pal = N[C@@H](Cc1ccccn1)C(=O)O; 3Pal = N[C@@H](Cc1cccnc1)C(=O)O; 4Pal = N[C@@H](Cc1ccncc1)C(=O)O; Nle = CCCC[C@H](N)C(=O)O; AEEA = NCCOCCOCC(=O)O; Aib = CC(C)(N)C(=O)O

B1: Peptide 61 (peptide)
peptide: {C18 diacid}-[d(γGlu)][AEEA][AEEA]GRHWAV[dA]HL[Nle]-NH2
SMILES: CCCC[C@H](NC(=O)[C@H](CC(C)C)NC(=O)[C@H](Cc1c[nH]cn1)NC(=O)[C@@H](C)NC(=O)[C@@H](NC(=O)[C@H](C)NC(=O)[C@H](Cc1c[nH]c2ccccc12)NC(=O)[C@H](Cc1c[nH]cn1)NC(=O)[C@H](CCCNC(=N)N)NC(=O)CNC(=O)COCCOCCNC(=O)COCCOCCNC(=O)CC[C@@H](NC(=O)CCCCCCCCCCCCCCCCC(=O)O)C(=O)O)C(C)C)C(N)=O
B2: Peptide 58 (peptide)
peptide: Palmitoyl-[d(γGlu)][AEEA][AEEA][AEEA][AEEA]GN[3Pal][Trp(7-Me)]AV[dA]HL[Nle]-NH2
SMILES: CCCCCCCCCCCCCCCC(=O)N[C@H](CCC(=O)NCCOCCOCC(=O)NCCOCCOCC(=O)NCCOCCOCC(=O)NCCOCCOCC(=O)NCC(=O)N[C@@H](CC(N)=O)C(=O)N[C@@H](Cc1cccnc1)C(=O)N[C@@H](Cc1c[nH]c2c(C)cccc12)C(=O)N[C@@H](C)C(=O)N[C@H](C(=O)N[C@H](C)C(=O)N[C@@H](Cc1c[nH]cn1)C(=O)N[C@@H](CC(C)C)C(=O)N[C@@H](CCCC)C(N)=O)C(C)C)C(=O)O
B3: Peptide 60 (peptide)
peptide: {C18 diacid}-[d(γGlu)][AEEA][AEEA]GKHWAV[dA]HL[Nle]-NH2
SMILES: CCCC[C@H](NC(=O)[C@H](CC(C)C)NC(=O)[C@H](Cc1c[nH]cn1)NC(=O)[C@@H](C)NC(=O)[C@@H](NC(=O)[C@H](C)NC(=O)[C@H](Cc1c[nH]c2ccccc12)NC(=O)[C@H](Cc1c[nH]cn1)NC(=O)[C@H](CCCCN)NC(=O)CNC(=O)COCCOCCNC(=O)COCCOCCNC(=O)CC[C@@H](NC(=O)CCCCCCCCCCCCCCCCC(=O)O)C(=O)O)C(C)C)C(N)=O
B4: Peptide 51 (peptide)
peptide: Palmitoyl-[d(γGlu)][AEEA][AEEA]GN[2Pal]WAV[dA]HL[Nle]-NH2
SMILES: CCCCCCCCCCCCCCCC(=O)N[C@H](CCC(=O)NCCOCCOCC(=O)NCCOCCOCC(=O)NCC(=O)N[C@@H](CC(N)=O)C(=O)N[C@@H](Cc1ccccn1)C(=O)N[C@@H](Cc1c[nH]c2ccccc12)C(=O)N[C@@H](C)C(=O)N[C@H](C(=O)N[C@H](C)C(=O)N[C@@H](Cc1c[nH]cn1)C(=O)N[C@@H](CC(C)C)C(=O)N[C@@H](CCCC)C(N)=O)C(C)C)C(=O)O
B5: Peptide 57 (peptide)
peptide: Palmitoyl-[d(γGlu)][AEEA][AEEA]GK([AEEA-AEEA-d(γGlu)-Palmitoyl])HWAV[dA]HL[Nle]-NH2
SMILES: CCCCCCCCCCCCCCCC(=O)N[C@H](CCC(=O)NCCOCCOCC(=O)NCCOCCOCC(=O)NCCCC[C@H](NC(=O)CNC(=O)COCCOCCNC(=O)COCCOCCNC(=O)CC[C@@H](NC(=O)CCCCCCCCCCCCCCC)C(=O)O)C(=O)N[C@@H](Cc1c[nH]cn1)C(=O)N[C@@H](Cc1c[nH]c2ccccc12)C(=O)N[C@@H](C)C(=O)N[C@H](C(=O)N[C@H](C)C(=O)N[C@@H](Cc1c[nH]cn1)C(=O)N[C@@H](CC(C)C)C(=O)N[C@@H](CCCC)C(N)=O)C(C)C)C(=O)O
B6: Peptide 54 (peptide)
peptide: Palmitoyl-[d(γGlu)][AEEA][AEEA][AEEA][AEEA]GNHWAV[dA]HL[Nle]-NH2
SMILES: CCCCCCCCCCCCCCCC(=O)N[C@H](CCC(=O)NCCOCCOCC(=O)NCCOCCOCC(=O)NCCOCCOCC(=O)NCCOCCOCC(=O)NCC(=O)N[C@@H](CC(N)=O)C(=O)N[C@@H](Cc1c[nH]cn1)C(=O)N[C@@H](Cc1c[nH]c2ccccc12)C(=O)N[C@@H](C)C(=O)N[C@H](C(=O)N[C@H](C)C(=O)N[C@@H](Cc1c[nH]cn1)C(=O)N[C@@H](CC(C)C)C(=O)N[C@@H](CCCC)C(N)=O)C(C)C)C(=O)O
B7: Peptide 3 (peptide)
peptide: Palmitoyl-[d(γGlu)][AEEA][AEEA]GN[3Pal]WAV[Aib]HL[Nle]-NH2
SMILES: CCCCCCCCCCCCCCCC(=O)N[C@H](CCC(=O)NCCOCCOCC(=O)NCCOCCOCC(=O)NCC(=O)N[C@@H](CC(N)=O)C(=O)N[C@@H](Cc1cccnc1)C(=O)N[C@@H](Cc1c[nH]c2ccccc12)C(=O)N[C@@H](C)C(=O)N[C@H](C(=O)NC(C)(C)C(=O)N[C@@H](Cc1c[nH]cn1)C(=O)N[C@@H](CC(C)C)C(=O)N[C@@H](CCCC)C(N)=O)C(C)C)C(=O)O
B8: Peptide 52 (peptide)
peptide: Palmitoyl-[d(γGlu)][AEEA][AEEA]GN[4Pal]WAV[dA]HL[Nle]-NH2
SMILES: CCCCCCCCCCCCCCCC(=O)N[C@H](CCC(=O)NCCOCCOCC(=O)NCCOCCOCC(=O)NCC(=O)N[C@@H](CC(N)=O)C(=O)N[C@@H](Cc1ccncc1)C(=O)N[C@@H](Cc1c[nH]c2ccccc12)C(=O)N[C@@H](C)C(=O)N[C@H](C(=O)N[C@H](C)C(=O)N[C@@H](Cc1c[nH]cn1)C(=O)N[C@@H](CC(C)C)C(=O)N[C@@H](CCCC)C(N)=O)C(C)C)C(=O)O
B9: Peptide 53 (peptide)
peptide: {C18 diacid}-[d(γGlu)][AEEA][AEEA][AEEA][AEEA]GNHWAV[dA]HL[Nle]-NH2
SMILES: CCCC[C@H](NC(=O)[C@H](CC(C)C)NC(=O)[C@H](Cc1c[nH]cn1)NC(=O)[C@@H](C)NC(=O)[C@@H](NC(=O)[C@H](C)NC(=O)[C@H](Cc1c[nH]c2ccccc12)NC(=O)[C@H](Cc1c[nH]cn1)NC(=O)[C@H](CC(N)=O)NC(=O)CNC(=O)COCCOCCNC(=O)COCCOCCNC(=O)COCCOCCNC(=O)COCCOCCNC(=O)CC[C@@H](NC(=O)CCCCCCCCCCCCCCCCC(=O)O)C(=O)O)C(C)C)C(N)=O
B10: Peptide 59 (peptide)
peptide: Palmitoyl-[d(γGlu)][AEEA][AEEA][AEEA][AEEA]GNH[Trp(7-Me)]AV[dA]HL[Nle]-NH2
SMILES: CCCCCCCCCCCCCCCC(=O)N[C@H](CCC(=O)NCCOCCOCC(=O)NCCOCCOCC(=O)NCCOCCOCC(=O)NCCOCCOCC(=O)NCC(=O)N[C@@H](CC(N)=O)C(=O)N[C@@H](Cc1c[nH]cn1)C(=O)N[C@@H](Cc1c[nH]c2c(C)cccc12)C(=O)N[C@@H](C)C(=O)N[C@H](C(=O)N[C@H](C)C(=O)N[C@@H](Cc1c[nH]cn1)C(=O)N[C@@H](CC(C)C)C(=O)N[C@@H](CCCC)C(N)=O)C(C)C)C(=O)O
B11: Peptide 56 (peptide)
peptide: Palmitoyl-[d(γGlu)][AEEA][AEEA]GNH[Trp(7-F)]AV[dA]HL[Nle]-NH2
SMILES: CCCCCCCCCCCCCCCC(=O)N[C@H](CCC(=O)NCCOCCOCC(=O)NCCOCCOCC(=O)NCC(=O)N[C@@H](CC(N)=O)C(=O)N[C@@H](Cc1c[nH]cn1)C(=O)N[C@@H](Cc1c[nH]c2c(F)cccc12)C(=O)N[C@@H](C)C(=O)N[C@H](C(=O)N[C@H](C)C(=O)N[C@@H](Cc1c[nH]cn1)C(=O)N[C@@H](CC(C)C)C(=O)N[C@@H](CCCC)C(N)=O)C(C)C)C(=O)O

Target: human GRP receptor (human, UniProt P30550 1-384)
Test: cell-based or functional assay

Sequence of human GRP receptor (P30550 whole entry): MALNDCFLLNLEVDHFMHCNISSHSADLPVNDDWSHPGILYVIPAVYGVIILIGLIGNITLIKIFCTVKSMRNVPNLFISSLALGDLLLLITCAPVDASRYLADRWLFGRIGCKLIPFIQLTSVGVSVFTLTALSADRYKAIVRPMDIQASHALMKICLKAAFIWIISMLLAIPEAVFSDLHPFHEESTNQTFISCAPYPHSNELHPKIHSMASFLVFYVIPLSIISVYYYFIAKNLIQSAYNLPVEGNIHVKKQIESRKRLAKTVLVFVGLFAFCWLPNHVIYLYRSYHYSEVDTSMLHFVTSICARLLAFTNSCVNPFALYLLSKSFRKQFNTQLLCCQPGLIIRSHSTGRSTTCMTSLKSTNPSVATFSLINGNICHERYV

Row | Binder | hIP1 GRPR EC50
1 | B1 | 8.25 nM
2 | B2 | 4.22 nM
3 | B3 | 7.27 nM
4 | EXXGNHWAVXHLK (Palmitoyl-D-γGlu-OEG-OEG-Gly-Asn-His-Trp-Ala-Val-D-Ala-His-Leu-Lys(Me)3-NH2) [Peptide 49] | 4040 nM
5 | B4 | 0.95 nM
6 | B5 | 72.8 nM
7 | B6 | 3.12 nM
8 | B7 | 8.7 nM
9 | B8 | 1.75 nM
10 | B9 | 42 nM
11 | B10 | 2.01 nM
12 | B11 | 1.97 nM
